This test relates to cells of the human embryonic stem cell line H1 differentiated to stage 5. In words: Real-time PCR of pancreatic endoderm/endocrine genes after factors spiked into stage 5 media. In kind it is cell-based. Particulars: for expression of somatostatin / expression of ghrelin / expression of glucagon: 20 ng/ml at S5, mRNA at day 3 of S5, vs control; for expression of somatostatin: FIG. 1B; for expression of ghrelin: FIG. 1C; for expression of glucagon: FIG. 1D; for mRNA expression of insulin / mRNA expression of NKX6.1: factor spiked at day 1 of stage 5, mRNA at day 3 of S5, vs control cultures, Table I: Ephrin-A4 100 ng/ml; for mRNA expression of insulin: Activin A and Activin C 20 ng/ml, FIG. 1A; for expression of hormones / mRNA expression of NKX6.1: Semaphorin 3a 50 ng/ml; for expression of hormones: Epigen 20 ng/ml at S5, compared to untreated cultures; for mRNA expression of NKX6.1: Epigen 20 ng/ml, FIG. 1F. How it is done: Cells of the human embryonic stem cell line H1 (hESC H1, passage 40) were seeded as single cells at 1×10^5 cells/cm^2 on MATRIGEL™ (1:30 dilution; BD Biosciences, NJ)-coated dishes in mTeSR®1 media (StemCell Technologies, Vancouver, Canada) supplemented with 10 μM of Y27632 (Rock inhibitor, Catalog No. Y0503, SigmaAldrich, St. Louis, Mo.). Forty-eight hours post seeding, cultures were washed in incomplete PBS (phosphate buffered saline without Mg or Ca). Cultures were differentiated into pancreatic endoderm/endocrine lineages as follows: • a) Stage 1 (Definitive Endoderm (DE)—3 days): Cells were cultured for one day in stage 1 media: MCDB-131 medium (Catalog No. 10372-019, Invitrogen, Carlsbad, Calif.) supplemented with 0.1% fatty acid-free BSA (Catalog No. 68700, Proliant, Ankeny, Iowa), 0.0012 g/ml sodium bicarbonate (Catalog No. S3187, SigmaAldrich, St. Louis, Mo.), 1× GlutaMax™ (Invitrogen Catalog No. 35050-079), 4.5 mM D-Glucose (SigmaAldrich Catalog No. G8769), 100 ng/ml GDF8 (R&D Systems, Minneapolis, Minn.) and 1 μM MCX compound (a GSK3B inhibitor, 14-Prop-2-en-1-yl-3,5,7,14,17,23,27-heptaazatetracyclo [19.3.1.1˜2,6˜0.1˜8,12˜]heptacosa-1(25),2(27),3,5,8(26),9,11,21,23-nonaen-16-one, US Patent Application Publication No. 2010-0015711; incorporated herein by reference in its entirety). Cells were then cultured for additional day in MCDB-131 medium supplemented with 0.1% fatty acid-free BSA, 0.0012 g/ml sodium bicarbonate, 1× GlutaMax™, 4.5 mM D-Glucose, 100 ng/ml GDF8, and 0.1 μM MCX compound. Cells were then cultured for an additional day in MCDB-131 medium supplemented with 0.1% fatty acid-free BSA, 0.0012 g/ml sodium bicarbonate, 1× GlutaMax™, 4.5 mM D-Glucose, and 100 ng/ml GDF8, then • b) Stage 2 (Primitive gut tube—2 days): Cells were treated for two days with MCDB-131 medium supplemented with 0.1% fatty acid-free BSA; 0.0012 g/ml sodium bicarbonate; 1× GlutaMax™; 4.5 mM D-Glucose; 0.25 mM ascorbic acid (Sigma, St. Louis, Mo.) and 25 ng/ml FGF7 (R & D Systems, Minneapolis, Minn.), then • c) Stage 3 (Foregut—2 days): Cells were treated with MCDB-131 medium supplemented with a 1:200 dilution of ITS-X (Invitrogen); 4.5 mM Glucose; 1× GlutaMax™; 0.0017 g/ml sodium bicarbonate; 2% fatty acid-free BSA; 0.25 μM SANT-1 (Sigma, St. Louis, Mo.); 10 ng/ml of Activin-A (R & D Systems); 1 μM retinoic acid (RA; Sigma); 25 ng/ml FGF7; 0.25 mM ascorbic acid; 200 nM TPB (a PKC activator; Catalog No. 565740; EMD Chemicals, Gibstown, N.J.); 10 μM forskolin (FSK, Sigma), and 100 nM LDN (a BMP receptor inhibitor; Catalog No. 04-0019; Stemgent; San Diego, Calif.) for day 1. On day 2, cells were treated with MCDB-131 medium supplemented with a 1:200 dilution of ITS-X; 4.5 mM Glucose; 1× GlutaMax™; 0.0017 g/ml sodium bicarbonate; 2% fatty acid-free BSA; 0.25 μM SANT-1; 10 ng/ml of Activin A; 1 μM RA; 25 ng/ml FGF7; 0.25 mM ascorbic acid, 200 nM TPB, 10 μM forskolin and 10 nM LDN, then • d) Stage 4 (Pancreatic foregut precursor—2 days); Cells were treated with MCDB-131 medium supplemented with a 1:200 dilution of ITS-X; 4.5 mM Glucose; 1× GlutaMax™; 0.0015 g/ml sodium bicarbonate; 2% fatty acid-free BSA; 0.25 μM SANT-1; 50 nM RA; 50 nM LDN-193189; 10 μM forskolin; 0.25 mM ascorbic acid; and 100 nM TPB for two days, then • e) Stage 5 (Pancreatic endoderm/endocrine—3 days): Stage 4 cells were treated with MCDB-131 medium supplemented with a 1:200 dilution of ITS-X; 20 mM Glucose; 1× GlutaMax™; 0.0015 g/ml sodium bicarbonate; 2% fatty acid-free BSA; 0.25 μM SANT-1; 50 nM RA; 10 μM forskolin; 0.25 mM ascorbic acid for three days, with the addition of 100 nM ALk5 inhibitor SD-208 (disclosed in Molecular Pharmacology 2007, 72:152-161) for days 2-3 only.
At day 1 of stage 5, the factors listed in Table I, below, were spiked into the media and upon completion of S5 (day 3 of stage 5) mRNA was collected for PCR analysis of relevant pancreatic endoderm/endocrine genes. As a control, cultures were treated only with the S5 media listed above. […]
A general note: Quantitative PCR measures a nucleic acid by following its amplification.

B1: Activin-C: protein factor, R & D Systems catalogue number 4879-AC-010 (protein, UniProt P55103 237-352, looked up)
Inhibin beta C chain: GIDCQGGSRMCCRQEFFVDFREIGWHDWIIQPEGYAMNFCIGQCPLHIAGMPGIAASFHTAVLNLLKANTAAGTTGGGSCCVPTARRPLSLLYYDRDSNIVKTDIPDMVVEACGCS
Consider B1, for which the expression of somatostatin entry is “significantly enhanced”, the expression of ghrelin result was “suppressing”, the expression of glucagon entry is “suppressing” and the “mRNA expression of insulin” value was “suppressing”.

B2: Epigen: protein factor, R & D Systems catalogue number 6629-EP-025 (protein, UniProt Q6UW88 23-154, looked up)
Epigen: AAVTVTPPITAQQGNWTVNKTEADNIEGPIALKFSHLCLEDHNSYCINGACAFHHELEKAICRCFTGYTGERCEHLTLTSYAVDSYEKYIAIGIGVGLLLSGFLVIFYCYIRKRCLKLKSPYNVCSGERRPL
Turning to B2, the expression of hormones result is “not affecting” and the “mRNA expression of NKX6.1” value is reported as “enhanced”.

B3: Activin-A: protein factor, R & D Systems catalogue number 338-AC-010 (protein, UniProt P08476 311-426, looked up)
Inhibin beta A chain: GLECDGKVNICCKKQFFVSFKDIGWNDWIIAPSGYHANYCEGECPSHIAGTSGSSLSFHSTVINHYRMRGHSPFANLKSCCVPTKLRPMSMLYYDDGQNIIKKDIQNMIVEECGCS
Turning to B3, the expression of somatostatin entry is “significantly enhanced”, the expression of ghrelin result is “suppressing”, the expression of glucagon entry is listed as “suppressing” and the “mRNA expression of insulin” value is “suppressing”.

B4: semaphorin 3a: protein factor, R & D Systems catalogue number 1250-S3-025 (protein, UniProt Q14563 21-771, looked up)
Semaphorin-3A: NYQNGKNNVPRLKLSYKEMLESNNVITFNGLANSSSYHTFLLDEERSRLYVGAKDHIFSFDLVNIKDFQKIVWPVSYTRRDECKWAGKDILKECANFIKVLKAYNQTHLYACGTGAFHPICTYIEIGHHPEDNIFKLENSHFENGRGKSPYDPKLLTASLLIDGELYSGTAADFMGRDFAIFRTLGHHHPIRTEQHDSRWLNDPKFISAHLISESDNPEDDKVYFFFRENAIDGEHSGKATHARIGQICKNDFGGHRSLVNKWTTFLKARLICSVPGPNGIDTHFDELQDVFLMNFKDPKNPVVYGVFTTSSNIFKGSAVCMYSMSDVRRVFLGPYAHRDGPNYQWVPYQGRVPYPRPGTCPSKTFGGFDSTKDLPDDVITFARSHPAMYNPVFPMNNRPIVIKTDVNYQFTQIVVDRVDAEDGQYDVMFIGTDVGTVLKVVSIPKETWYDLEEVLLEEMTVFREPTAISAMELSTKQQQLYIGSTAGVAQLPLHRCDIYGKACAECCLARDPYCAWDGSACSRYFPTAKRRTRRQDIRNGDPLTHCSDLHHDNHHGHSPEERIIYGVENSSTFLECSPKSQRALVYWQFQRRNEERKEEIRVDDHIIRTDQGLLLRSLQQKDSGNYLCHAVEHGFIQTLLKVTLEVIDTEHLEELLHKDDDGDGSKTKEMSNSMTPSQKVWYRDFMQLINHPNLNTMDEFCEQVWKRDRKQRRQRPGHTPGNSNKWKHLQENKKGRNRRTHEFERAPRSV
In the case of B4, the expression of hormones entry is “not affecting” and the “mRNA expression of NKX6.1” value is recorded as “enhanced”.

Source of the values: patent US10208288B2, “Differentiation of human embryonic stem cells into pancreatic endocrine cells” (Janssen Biotech, Inc., priority 2012, dated 2019).
